Experimental data published in US20230032737A1 (published 2023).

Target: purified human factor D (from human plasma) (human, UniProt P00746 26-253)
Assay: Biacore SPR

purified human factor D (from human plasma), sequence (P00746 26-253): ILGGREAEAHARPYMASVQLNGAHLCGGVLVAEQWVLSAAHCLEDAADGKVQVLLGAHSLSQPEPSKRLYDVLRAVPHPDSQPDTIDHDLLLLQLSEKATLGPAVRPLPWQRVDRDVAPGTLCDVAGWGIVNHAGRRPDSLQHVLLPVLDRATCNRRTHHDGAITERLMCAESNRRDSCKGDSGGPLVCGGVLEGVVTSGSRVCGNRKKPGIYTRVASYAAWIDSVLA

B1: recombinant chimeric 11-8A1 (variable region of 11-8A1 + constant region of human IgG4) (antibody, V domains shown)
VH: EVQLQQSGADLVRPGASVKLSCTTSGFNIKDTYVHWVKQRPEQGLEWIGRIDPANGLTTFDPRFQAKATITADTSSNTAYLQLSSLTSEDTAVYYCTYAMEYWGQGTSVTVSS
VL: QIVLTQSPAIMSASPGERVTMTCSARSDVSYMYWYQQKPGSSPRLLIYDTSNLASGVPVRFSASGSGTSYSLTISRMEAEDAATYYCQQWSSYPPWTFGGGTKLEIK
- Kd: 0.153 nM

B2: mAb 11-8A1 (hybridoma-derived murine anti-human factor D monoclonal antibody) (antibody, V domains shown)
VH: EVQLQQSGADLVRPGASVKLSCTTSGFNIKDTYVHWVKQRPEQGLEWIGRIDPANGLTTFDPRFQAKATITADTSSNTAYLQLSSLTSEDTAVYYCTYAMEYWGQGTSVTVSS
VL: QIVLTQSPAIMSASPGERVTMTCSARSDVSYMYWYQQKPGSSPRLLIYDTSNLASGVPVRFSASGSGTSYSLTISRMEAEDAATYYCQQWSSYPPWTFGGGTKLEIKR
- Kd: 0.148 nM
